Results reported in patent publication US20240317834A1, “COMPOSITIONS AND METHODS FOR NEUROLOGICAL DISEASES” (CODA BIOTHERAPEUTICS, INC., priority 2020, published 2024).
Positions count from the first letter of the chain named. Names may count otherwise.

System: Lenti-X 293T cells
Experiment: YFP fluorescence quenching anion reporter plate reader assay of engineered receptors stimulated with acetylcholine or a non-native ligand
Assay type: cell-based
Conditions: for percent quench of YFP fluorescence, 30 nM TC-6683: TC-6683 30 nM; for percent quench of YFP fluorescence, 300 nM TC-6683: TC-6683 300 nM; for percent quench of YFP fluorescence, 3 uM TC-6683: TC-6683 3 uM; for percent quench of YFP fluorescence, 30 uM TC-6683: TC-6683 30 uM; for percent quench of YFP fluorescence, 100 uM TC-6683: TC-6683 100 uM; for percent quench of YFP fluorescence, 10 uM ach: acetylcholine 10 uM; for percent quench of YFP fluorescence, 100 uM ach: acetylcholine 100 uM; for percent quench of YFP fluorescence, 1 mM ach: acetylcholine 1 mM; for percent quench of YFP fluorescence, 3 mM ach: acetylcholine 3 mM
Procedure, shortened: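 YFP quench was followed for about 1 min 43 s after ligand delivered in iodide-based ECS, pH 7.2. Values are end-of-read fluorescence (last 10 s) divided by the pre-ligand baseline (15 s). Cells were LX293T, transfected with receptor DNA a day before the assay.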

B1: CODA807: engineered chimeric LGIC receptor, Y115D, L131E in SEQ ID NO: 33 (protein)
chain: MRCSPGGVWLALAASLLHVSLQGEFQRKLYKELVKNYNPLERPVANDSQPLTVYFSLSLLQIMDVDEKNQVLTTNIWLQMSWTDHYLQWNVSEYPGVKTVRFPDGQIWKPDILLDNSADERFDATFHTNVEVNSSGHCQYLPPGIFKSSCPMDLKNFPMDVQTCKLKFGSWSYGGWSLDLQMQEADISGYIPNGEWDLVGIPGKRSERFYECCKEPYPDVTFTVTMRRRMGYYLIQMYIPSLLIVILSWISFWINMDAAPARVGLGITTVLTMTTQSSGSRASLPKVSYVKAIDIWMAVCLLFVFSALLEYAAVNFVSRQHKELLRFRRKRRHHKSPMLNLFQEDEAGEGRFNFSAYGMGPACLQAKDGISVKGANNSNTTNPPPAPSKSPEEMRKLFIQRAKKIDKISRIGFPMAFLIFNMFYWIIYKIVRREDVHNQ
modifications: synthetic sequence of chimeric LGIC
Question: B1 was tested. Which “YFP fluorescence quenching using CNL001” value (1 nM CNL001, first column) did it give?
Answer: 0.885%

Question: And the “YFP fluorescence quenching using CNL001” value (1 nM CNL001, second column)?
Answer: −1.707%

Question: And the “YFP fluorescence quenching using TC-5619/Bradanicline” value (1 nM brd)?
Answer: −1.52%

Question: What about the “YFP fluorescence quenching using TC-5619/Bradanicline” value (3 nM brd) of the same molecule?
Answer: −5.35%

Question: And the “YFP fluorescence quenching using CNL001” value (10 nM CNL001, first column)?
Answer: −0.567%

Question: What about the “YFP fluorescence quenching using CNL001” value (10 nM CNL001, second column) of the same molecule?
Answer: 0.043%

Question: What about the “YFP fluorescence quenching using TC-5619/Bradanicline” value (10 nM brd) of the same molecule?
Answer: −3.49%

Question: What about the “YFP fluorescence quenching using TC-5619/Bradanicline” value (30 nM brd) of the same molecule?
Answer: −2.16%

Question: What about the “YFP fluorescence quenching using Facinicline” value (30 nM fac) of the same molecule?
Answer: 45.76

Question: What about the “YFP fluorescence quenching using CNL001” value (50 nM CNL001, first column) of the same molecule?
Answer: 5.141%

Question: What about the “YFP fluorescence quenching using CNL001” value (50 nM CNL001, second column) of the same molecule?
Answer: 9.409%

Question: And the “YFP fluorescence quenching using ABT-126” value (50 nM abt)?
Answer: −1.68%

Question: And the “YFP fluorescence quenching using CNL001” value (100 nM CNL001, first column)?
Answer: 9.796%

Question: What about the “YFP fluorescence quenching using CNL001” value (100 nM CNL001, second column) of the same molecule?
Answer: 11.009%

Question: What about the “YFP fluorescence quenching using CNL002” value (100 nM CNL002) of the same molecule?
Answer: −5.71%

Question: And the “YFP fluorescence quenching using ABT-126” value (100 nM abt)?
Answer: −2.25%

Question: And the “YFP fluorescence quenching using AZD-0328” value (100 nM azd0328)?
Answer: 24.49%

Question: What about the “YFP fluorescence quenching using TC-5619/Bradanicline” value (100 nM brd) of the same molecule?
Answer: 4.18%

Question: What about the “YFP fluorescence quenching using Facinicline” value (100 nM fac) of the same molecule?
Answer: 63.92

Question: And the “YFP fluorescence quenching using ABT-126” value (300 nM abt)?
Answer: −2.37%

Question: And the “YFP fluorescence quenching using AZD-0328” value (300 nM azd0328)?
Answer: 45.34%

Question: What about the “YFP fluorescence quenching using TC-5619/Bradanicline” value (300 nM brd) of the same molecule?
Answer: 70.2%

Question: And the “YFP fluorescence quenching using Facinicline” value (300 nM fac)?
Answer: 79.43

Question: What about the “YFP fluorescence quenching using CNL001” value (1 uM CNL001, first column) of the same molecule?
Answer: 27.914%

Question: What about the “YFP fluorescence quenching using CNL001” value (1 uM CNL001, second column) of the same molecule?
Answer: 29.109%

Question: And the “YFP fluorescence quenching using CNL002” value (1 uM CNL002)?
Answer: 13.03%

Question: And the “YFP fluorescence quenching using ABT-126” value (1 uM abt)?
Answer: 3.68%

Question: What about the “YFP fluorescence quenching using TC-5619/Bradanicline” value (1 uM brd) of the same molecule?
Answer: 43.11%

Question: What about the “YFP fluorescence quenching using TC-6987” value (1 uM tc6987) of the same molecule?
Answer: 36.07

Question: And the “YFP fluorescence quenching using Facinicline” value (10 uM fac)?
Answer: 80.1

Question: And the “YFP fluorescence quenching using TC-6987” value (10 uM tc6987)?
Answer: 31.35

Question: What about the “YFP fluorescence quenching using CNL002” value (30 uM CNL002) of the same molecule?
Answer: 25.2%

Question: What about the “YFP fluorescence quenching using AZD-0328” value (30 uM azd0328) of the same molecule?
Answer: 71.21%

Question: What about the “YFP fluorescence quenching using Facinicline” value (30 uM fac) of the same molecule?
Answer: 84.91

Question: What about the “YFP fluorescence quenching using TC-6987” value (500 uM tc6987) of the same molecule?
Answer: 28.18

Question: And the “percent quench of YFP fluorescence, 30 nM TC-6683” value?
Answer: −26.801%

Question: What about the “percent quench of YFP fluorescence, 300 nM TC-6683” value of the same molecule?
Answer: −25.363%

Question: What about the “percent quench of YFP fluorescence, 3 uM TC-6683” value of the same molecule?
Answer: −23.651%

Question: What about the “percent quench of YFP fluorescence, 30 uM TC-6683” value of the same molecule?
Answer: −26.235%

Question: And the “percent quench of YFP fluorescence, 100 uM TC-6683” value?
Answer: −24.182%

Question: What about the “percent quench of YFP fluorescence, 10 uM ach” value of the same molecule?
Answer: 15.45%

Question: What about the “percent quench of YFP fluorescence, 100 uM ach” value of the same molecule?
Answer: 13.77%

Question: And the “percent quench of YFP fluorescence, 1 mM ach” value?
Answer: 27.42%

Question: And the “percent quench of YFP fluorescence, 3 mM ach” value?
Answer: 53.62%

B2: CODA952: engineered chimeric LGIC receptor, Y140I in SEQ ID NO: 33 (protein)
chain: B1 chain with D115Y, E131L, Y140I
modifications: synthetic sequence of chimeric LGIC
Question: B2 was tested. Which “YFP fluorescence quenching using CNL001” value (1 nM CNL001, first column) did it give?
Answer: 0.368%

Question: And the “YFP fluorescence quenching using CNL001” value (1 nM CNL001, second column)?
Answer: −1.976%

Question: What about the “YFP fluorescence quenching using TC-5619/Bradanicline” value (3 nM brd) of the same molecule?
Answer: −2.45%

Question: What about the “YFP fluorescence quenching using Varenicline” value (3 nM var, first column) of the same molecule?
Answer: −22.522

Question: What about the “YFP fluorescence quenching using Varenicline” value (3 nM var, second column) of the same molecule?
Answer: −18.173

Question: What about the “YFP fluorescence quenching using CNL001” value (10 nM CNL001, first column) of the same molecule?
Answer: −3.923%

Question: And the “YFP fluorescence quenching using CNL001” value (10 nM CNL001, second column)?
Answer: 4.348%

Question: And the “YFP fluorescence quenching using TC-5619/Bradanicline” value (30 nM brd)?
Answer: 66.97%

Question: What about the “YFP fluorescence quenching using Facinicline” value (30 nM fac) of the same molecule?
Answer: −8.83

Question: What about the “YFP fluorescence quenching using Varenicline” value (30 nM var, first column) of the same molecule?
Answer: −15.306

Question: What about the “YFP fluorescence quenching using Varenicline” value (30 nM var, second column) of the same molecule?
Answer: −12.832

Question: And the “YFP fluorescence quenching using CNL001” value (50 nM CNL001, first column)?
Answer: 74.107%

Question: And the “YFP fluorescence quenching using CNL001” value (50 nM CNL001, second column)?
Answer: 75.866%

Question: And the “YFP fluorescence quenching using ABT-126” value (50 nM abt)?
Answer: −12.34%

Question: What about the “YFP fluorescence quenching using CNL001” value (100 nM CNL001, first column) of the same molecule?
Answer: 80.323%

Question: What about the “YFP fluorescence quenching using CNL001” value (100 nM CNL001, second column) of the same molecule?
Answer: 81.996%

Question: What about the “YFP fluorescence quenching using CNL002” value (100 nM CNL002) of the same molecule?
Answer: 32.58%

Question: And the “YFP fluorescence quenching using ABT-126” value (100 nM abt)?
Answer: −11.57%

Question: What about the “YFP fluorescence quenching using AZD-0328” value (100 nM azd0328) of the same molecule?
Answer: −12.96%

Question: What about the “YFP fluorescence quenching using ABT-126” value (300 nM abt) of the same molecule?
Answer: −5.21%

Question: And the “YFP fluorescence quenching using AZD-0328” value (300 nM azd0328)?
Answer: −13.21%

Question: And the “YFP fluorescence quenching using TC-5619/Bradanicline” value (300 nM brd)?
Answer: 78.48%

Question: And the “YFP fluorescence quenching using Facinicline” value (300 nM fac)?
Answer: 51.6

Question: And the “YFP fluorescence quenching using Varenicline” value (300 nM var, first column)?
Answer: −14.671

Question: What about the “YFP fluorescence quenching using Varenicline” value (300 nM var, second column) of the same molecule?
Answer: −17.016

Question: And the “YFP fluorescence quenching using Varenicline” value (500 nM var, first column)?
Answer: −16.713

Question: And the “YFP fluorescence quenching using Varenicline” value (500 nM var, second column)?
Answer: −18.893

Question: And the “YFP fluorescence quenching using CNL001” value (1 uM CNL001, first column)?
Answer: 83.489%

Question: And the “YFP fluorescence quenching using CNL001” value (1 uM CNL001, second column)?
Answer: 82.208%

Question: And the “YFP fluorescence quenching using CNL002” value (1 uM CNL002)?
Answer: 69.08%

Question: What about the “YFP fluorescence quenching using ABT-126” value (1 uM abt) of the same molecule?
Answer: 3.93%

Question: And the “YFP fluorescence quenching using TC-6987” value (1 uM tc6987)?
Answer: 6.03

Question: And the “YFP fluorescence quenching using Varenicline” value (1 uM var, first column)?
Answer: −15.847

Question: And the “YFP fluorescence quenching using Varenicline” value (1 uM var, second column)?
Answer: −16.236

Question: And the “YFP fluorescence quenching using TC-6987” value (10 uM tc6987)?
Answer: 2.25

Question: What about the “YFP fluorescence quenching using CNL002” value (30 uM CNL002) of the same molecule?
Answer: 73.28%

Question: What about the “YFP fluorescence quenching using AZD-0328” value (30 uM azd0328) of the same molecule?
Answer: 68.5%

Question: What about the “YFP fluorescence quenching using Facinicline” value (30 uM fac) of the same molecule?
Answer: 71.01

Question: What about the “YFP fluorescence quenching using TC-6987” value (500 uM tc6987) of the same molecule?
Answer: −0.24

Question: What about the “percent quench of YFP fluorescence, 30 nM TC-6683” value of the same molecule?
Answer: −27.7%

Question: What about the “percent quench of YFP fluorescence, 300 nM TC-6683” value of the same molecule?
Answer: −26.87%

Question: What about the “percent quench of YFP fluorescence, 3 uM TC-6683” value of the same molecule?
Answer: −31.2%

Question: And the “percent quench of YFP fluorescence, 30 uM TC-6683” value?
Answer: −33.12%

Question: What about the “percent quench of YFP fluorescence, 100 uM TC-6683” value of the same molecule?
Answer: −24.67%

Question: What about the “percent quench of YFP fluorescence, 10 uM ach” value of the same molecule?
Answer: −1.97%

Question: What about the “percent quench of YFP fluorescence, 100 uM ach” value of the same molecule?
Answer: 2.79%

Question: What about the “percent quench of YFP fluorescence, 1 mM ach” value of the same molecule?
Answer: 58.81%

Question: What about the “percent quench of YFP fluorescence, 3 mM ach” value of the same molecule?
Answer: 66.9%
